The values that follow come from article doi:10.1101/2021.11.02.466875.

Like-named read-outs stand apart in the source and are kept apart here.

Assay in all cases: BLI
Assay [1] deals with RapC (Bacillus velezensis SQR9).
Assay [2] has the same target. This is another data set of the same source.
Assay [3] shares this target. This is another data set of the same source.
Assay [4] shares this target. The source holds these as a separate data set.

Broadly, the Kd is a measure of binding affinity in units of concentration. Regarding ComA (natural protein), the Kd in assay [1] is 8.69 nM; in assay [2] it was 26.8 nM; in assay [3], 5.49 nM; in assay [4], 13.5 nM.
